Test results as given in patent US20210395713A1 (TRUSTEES OF DARTMOUTH COLLEGE, published 2021).
Where two headings read alike, the source gives them in different places.

Key:
Test in all cases: MHC II competition binding assay
[1] = target: T1, purified recombinant MHC II protein, allele DRB1*0701 (human)
T1 construct: bought from Benaroya Research Institute; also called MHC-II DR molecule

[2] = target: T2, purified recombinant MHC II protein, allele DRB1*1101 (human)
T2 construct: bought from Benaroya Research Institute; also called MHC-II DR molecule

[3] = target: T3, purified recombinant MHC II protein, allele DRB1*1501 (human)
T3 construct: bought from Benaroya Research Institute; also called MHC-II DR molecule

[4] = target: T4, purified recombinant MHC II protein, allele DRB1*0101 (human)
T4 construct: bought from Benaroya Research Institute; also called MHC-II DR molecule

[5] = target: T5, purified recombinant MHC II protein, allele DRB1*0401 (human)
T5 construct: bought from Benaroya Research Institute; also called DR4; MHC-II DR molecule

[6] = target: T1, purified recombinant MHC II protein, …; remark: listed apart in the source
[7] = target: T6, purified recombinant MHC II protein, allele DRB1*1301 (human)
T6 construct: bought from Benaroya Research Institute; also called MHC-II DR molecule

[8] = target: T2, purified recombinant MHC II protein, …; remark: listed apart in the source
[9] = target: T7, purified recombinant MHC II protein, allele DRB1*0301 (human)
T7 construct: bought from Benaroya Research Institute; also called MHC-II DR molecule

[10] = target: T3, purified recombinant MHC II protein, …; remark: listed apart in the source
[11] = target: T4, purified recombinant MHC II protein, …; remark: listed apart in the source
[12] = target: T5, purified recombinant MHC II protein, …; remark: listed apart in the source
[13] = target: T4, purified recombinant MHC II protein, …; remark: listed apart in the source
[14] = target: T8, purified recombinant MHC II protein, allele DRB1*0801 (human)
T8 construct: bought from Benaroya Research Institute; also called MHC-II DR molecule

[15] = target: T6, purified recombinant MHC II protein, …; remark: listed apart in the source
[16] = target: T2, purified recombinant MHC II protein, …; remark: listed apart in the source
[17] = target: T3, purified recombinant MHC II protein, …; remark: listed apart in the source
[18] = target: T4, purified recombinant MHC II protein, …; remark: listed apart in the source
[19] = target: T8, purified recombinant MHC II protein, …; remark: listed apart in the source
[20] = target: T1, purified recombinant MHC II protein, …; remark: listed apart in the source
[21] = target: T6, purified recombinant MHC II protein, …; remark: listed apart in the source
[22] = target: T2, purified recombinant MHC II protein, …; remark: listed apart in the source
[23] = target: T7, purified recombinant MHC II protein, …; remark: listed apart in the source
[24] = target: T3, purified recombinant MHC II protein, …; remark: listed apart in the source
[25] = target: T4, purified recombinant MHC II protein, …; remark: listed apart in the source
[26] = target: T8, purified recombinant MHC II protein, …; remark: listed apart in the source
[27] = target: T5, purified recombinant MHC II protein, …; remark: listed apart in the source
[28] = target: T1, purified recombinant MHC II protein, …; remark: listed apart in the source
[29] = target: T6, purified recombinant MHC II protein, …; remark: listed apart in the source
[30] = target: T2, purified recombinant MHC II protein, …; remark: listed apart in the source
[31] = target: T7, purified recombinant MHC II protein, …; remark: listed apart in the source
[32] = target: T3, purified recombinant MHC II protein, …; remark: listed apart in the source
[33] = target: T4, purified recombinant MHC II protein, …; remark: listed apart in the source
[34] = target: T8, purified recombinant MHC II protein, …; remark: listed apart in the source
[35] = target: T5, purified recombinant MHC II protein, …; remark: listed apart in the source
[36] = target: T1, purified recombinant MHC II protein, …; remark: listed apart in the source
[37] = target: T2, purified recombinant MHC II protein, …; remark: listed apart in the source
[38] = target: T8, purified recombinant MHC II protein, …; remark: listed apart in the source

B1: cluster 5 peptide with Ser124Gly (peptide)
peptide: HLHFQRMVNSFGNPTAQ
notes: synthetic mutated peptide of the lysostaphin catalytic domain; also called S124G
IC50 [1]: 151 µM
IC50 [2]: 0.3 µM
IC50 [3]: < 0.01 µM
IC50 [4]: < 0.01 µM
IC50 [5]: 0.04 µM

GVDFFMNIGTPVKAISSGKIV [cluster 2 wild-type (C2WT) epitope peptide]
IC50 [6]: 8.19 µM
IC50 [7]: 104 µM
IC50 [8]: 10.1 µM
IC50 [9]: 60.1 µM
IC50 [10]: 2.37 µM
IC50 [11]: 0.22 µM
IC50 [12]: 13.7 µM

B2: cluster 2 peptide with Ile41Glu (peptide)
peptide: GVDFFMNEGTPVKAISSGKIV
notes: synthetic mutated peptide of the lysostaphin catalytic domain; also called I41E
IC50 [6]: 7.51 µM
IC50 [7]: 143 µM
IC50 [8]: 146 µM
IC50 [10]: 7.44 µM
IC50 [11]: 0.59 µM
IC50 [12]: 3.48 µM

B3: cluster 2 peptide with Lys46His (peptide)
peptide: GVDFFMNIGTPVHAISSGKIV
notes: synthetic mutated peptide of the lysostaphin catalytic domain; also called K46H
fold decrease in binding against C2WT [13]: 2 fold
IC50 [6]: 4.46 µM
IC50 [7]: 212 µM
IC50 [8]: 18.3 µM
IC50 [9]: 152 µM
IC50 [10]: 2.55 µM
IC50 [11]: 0.49 µM
IC50 [14]: 87.5 µM
IC50 [12]: 1.65 µM

B4: cluster 2 peptide with Ile41Glu/Lys46His (peptide)
peptide: GVDFFMNEGTPVHAISSGKIV
notes: synthetic mutated peptide of the lysostaphin catalytic domain; also called 41_46
IC50 [6]: 14.3 µM
IC50 [8]: < 0.01 µM
IC50 [10]: < 0.01 µM
IC50 [11]: < 0.01 µM
IC50 [12]: < 0.01 µM

SAQWLNNYKKGYGYG [cluster 1 wild-type (C1WT) epitope peptide]
IC50 [15]: 137 µM
IC50 [16]: 0.94 µM
IC50 [17]: 102 µM
IC50 [18]: 215 µM
IC50 [19]: 13.7 µM

B5: cluster 1 peptide with Asn12Gly (peptide)
peptide: SAQWLGNYKKGYGYG
notes: synthetic mutated peptide of the lysostaphin catalytic domain
IC50 [16]: 5.16 µM
IC50 [18]: < 0.01 µM
IC50 [19]: 58.6 µM

B6: cluster 1 peptide with Asn13His (peptide)
peptide: SAQWLNHYKKGYGYG
notes: as for B5
IC50 [15]: 41.6 µM
IC50 [16]: 4.13 µM

DYVKAGQIIGWSGSTGY [cluster 4 wild-type (C4WT) epitope peptide]
IC50 [20]: 92.9 µM
IC50 [21]: 78.5 µM
IC50 [22]: 1.69 µM
IC50 [23]: 31.4 µM
IC50 [24]: < 0.01 µM
IC50 [25]: < 0.01 µM
IC50 [26]: 62.5 µM
IC50 [27]: < 0.01 µM

B7: cluster 4 peptide with Tyr93His (peptide)
peptide: DHVKAGQIIGWSGSTGY
notes: synthetic mutated peptide of the lysostaphin catalytic domain; also called Y93H
IC50 [20]: 182 µM
IC50 [24]: < 0.01 µM
IC50 [25]: 103 µM

B8: cluster 4 peptide with Ile99Gln (peptide)
peptide: DYVKAGQQIGWSGSTGY
notes: synthetic mutated peptide of the lysostaphin catalytic domain; also called I99Q
IC50 [20]: 93.1 µM
IC50 [22]: 24.3 µM
IC50 [24]: 66.1 µM
IC50 [25]: 31.7 µM
IC50 [27]: 6.16 µM

B9: cluster 4 peptide with Lys95Glu/Ile99Gln (peptide)
peptide: DYVEAGQQIGWSGSTGY
notes: synthetic mutated peptide of the lysostaphin catalytic domain; also called 95-99
IC50 [20]: 104 µM
IC50 [22]: 25.4 µM
IC50 [24]: < 0.01 µM
IC50 [25]: < 0.01 µM
IC50 [27]: 25.8 µM

B10: cluster 4 peptide with Tyr93His/Ile99Gln (peptide)
peptide: DHVKAGQQIGWSGSTGY
notes: synthetic mutated peptide of the lysostaphin catalytic domain; also called 93_99
IC50 [20]: 60.5 µM
IC50 [24]: < 0.01 µM
IC50 [25]: < 0.01 µM
IC50 [27]: < 0.01 µM

B11: cluster 4 peptide with Lys95Glu (peptide)
peptide: DYVEAGQIIGWSGSTGY
notes: synthetic mutated peptide of the lysostaphin catalytic domain; also called K95E
IC50 [20]: 4.81 µM
IC50 [21]: 25.7 µM
IC50 [22]: 6.32 µM
IC50 [23]: 1.9 µM
IC50 [24]: < 0.01 µM
IC50 [25]: < 0.01 µM
IC50 [26]: 12.2 µM
IC50 [27]: < 0.01 µM

B12: cluster 4 peptide with Tyr93His/Lys95Glu/Ile99Gln (peptide)
peptide: DHVEAGQQIGWSGSTGY
notes: synthetic mutated peptide of the lysostaphin catalytic domain; also called 939599
IC50 [20]: 179 µM

B13: cluster 4 peptide with Tyr93His/Lys95Glu (peptide)
peptide: DHVEAGQIIGWSGSTGY
notes: synthetic mutated peptide of the lysostaphin catalytic domain; also called 93_95
IC50 [20]: 24.9 µM
IC50 [21]: 18.9 µM
IC50 [22]: 25 µM
IC50 [23]: 110 µM
IC50 [24]: 0.06 µM
IC50 [25]: 9.98 µM
IC50 [26]: 30.9 µM
IC50 [27]: 25.5 µM

GVHRQWYMHLSKYNVKVGD [cluster 3 wild-type (C3WT) epitope peptide]
IC50 [28]: 0.41 µM
IC50 [29]: 54.7 µM
IC50 [30]: < 0.01 µM
IC50 [31]: 155 µM
IC50 [32]: 9.51 µM
IC50 [33]: < 0.01 µM
IC50 [34]: 0.14 µM
IC50 [35]: 38.1 µM

B14: cluster 3 peptide with Leu83Met (peptide)
peptide: GVHRQWYMHMSKYNVKVGD
notes: synthetic mutated peptide of the lysostaphin catalytic domain; also called L83M
fold decrease in binding against C3WT [36]: > 2 fold
fold decrease in binding against C3WT [37]: 10 fold
fold decrease in binding against C3WT [13]: 2000 fold
fold decrease in binding against C3WT [38]: ~5 fold
IC50 [28]: 2.09 µM
IC50 [29]: 27.4 µM
IC50 [30]: 0.11 µM
IC50 [31]: 115 µM
IC50 [32]: 4.42 µM
IC50 [33]: 32.4 µM
IC50 [34]: 0.37 µM
